The values that follow come from publication PMC11452662, “Biofunctionalized dissolvable hydrogel microbeads enable efficient characterization of native protein complexes” (Nature Communications, 2024).

Data set [1] has as its target Hp of the Hp(2)Ab(1) complex. In words: native MS; tandem MS with increasing collisional energy of the bait-target complex Hp(2)Hb(4)Ab(1), Hb as bait.
Data set [2] concerns the molecule itself. The experiment in a line: native MS; 20S purified with Strep-Tactin SNAP beads, α and β expressed from two separate plasmids; 150 mM ammonium acetate.
Data set [3] addresses T1, Thermoplasma acidophilum 20S proteasome β subunit with Twin-Strep-tag (Thermoplasma acidophilum, UniProt P28061 9-211).
T1 construct: 20S proteasome β subunit of Thermoplasma acidophilum; not shown: Twin-Strep-tag, C-terminal, kept
T1 sequence (looked up): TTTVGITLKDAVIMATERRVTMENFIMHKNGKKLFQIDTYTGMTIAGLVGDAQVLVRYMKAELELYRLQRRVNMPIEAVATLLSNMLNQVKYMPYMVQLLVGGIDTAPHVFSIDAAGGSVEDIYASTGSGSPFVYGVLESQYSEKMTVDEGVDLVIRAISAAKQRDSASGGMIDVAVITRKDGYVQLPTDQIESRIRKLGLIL
In words: native MS; 20S purified with Strep-Tactin SNAP beads, α and β coded in the same plasmid; 150 mM ammonium acetate. The note with it: partners not purified.

Where “and” joins values, the source holds several entries; their conditions need not be identical. Identical values can stand only once.

As usually defined, the stoichiometry N is the number of molecules, sites or subunits per partner or assembly.

Hp of the Hp(2)Ab(1) complex came in with a stoichiometry N in data set [1] of 2.

B1: Thermoplasma acidophilum 20S proteasome α subunit, unmodified (natural protein, UniProt P25156 1-233, looked up)
chain: MQQGQMAYDRAITVFSPDGRLFQVEYAREAVKKGSTALGMKFANGVLLISDKKVRSRLIEQNSIEKIQLIDDYVAAVTSGLVADARVLVDFARISAQQEKVTYGSLVNIENLVKRVADQMQQYTQYGGVRPYGVSLIFAGIDQIGPRLFDCDPAGTINEYKATAIGSGKDAVVSFLEREYKENLPEKEAVTLGIKALKSSLEEGEELKAPEIASITVGNKYRIYDQEEVKKFL
notes: 20S proteasome α subunit of Thermoplasma acidophilum; The results call this α subunit unmodified; the methods say that the constructs were tagged at the C-termini with either a Twin-Strep-tag or a His tag
Regarding B1, the “stoichiometry N” value in data set [2] is 7 and 14; in data set [3], 28 subunits in the complex of α and β.
